In IntAct's records for PubMed 20173742:

B1: Kelch-like ECH-associated protein 1 (Mus musculus), Q9Z2X8 (parent)
chain: MQPEPKLSGAPRSSQFLPLWSKCPEGAGDAVMYASTECKAEVTPSQDGNRTFSYTLEDHTKQAFGVMNELRLSQQLCDVTLQVKYEDIPAAQFMAHKVVLASSSPVFKAMFTNGLREQGMEVVSIEGIHPKVMERLIEFAYTASISVGEKCVLHVMNGAVMYQIDSVVRACSDFLVQQLDPSNAIGIANFAEQIGCTELHQRAREYIYMHFGEVAKQEEFFNLSHCQLATLISRDDLNVRCESEVFHACIDWVKYDCPQRRFYVQALLRAVRCHALTPRFLQTQLQKCEILQADARCKDYLVQIFQELTLHKPTQAVPCRAPKVGRLIYTAGGYFRQSLSYLEAYNPSNGSWLRLADLQVPRSGLAGCVVGGLLYAVGGRNNSPDGNTDSSALDCYNPMTNQWSPCASMSVPRNRIGVGVIDGHIYAVGGSHGCIHHSSVERYEPERDEWHLVAPMLTRRIGVGVAVLNRLLYAVGGFDGTNRLNSAECYYPERNEWRMITPMNTIRSGAGVCVLHNCIYAAGGYDGQDQLNSVERYDVETETWTFVAPMRHHRSALGITVHQGKIYVLGGYDGHTFLDSVECYDPDSDTWSEVTRMTSGRSGVGVAVTMEPCRKQIDQQNCTC
partner: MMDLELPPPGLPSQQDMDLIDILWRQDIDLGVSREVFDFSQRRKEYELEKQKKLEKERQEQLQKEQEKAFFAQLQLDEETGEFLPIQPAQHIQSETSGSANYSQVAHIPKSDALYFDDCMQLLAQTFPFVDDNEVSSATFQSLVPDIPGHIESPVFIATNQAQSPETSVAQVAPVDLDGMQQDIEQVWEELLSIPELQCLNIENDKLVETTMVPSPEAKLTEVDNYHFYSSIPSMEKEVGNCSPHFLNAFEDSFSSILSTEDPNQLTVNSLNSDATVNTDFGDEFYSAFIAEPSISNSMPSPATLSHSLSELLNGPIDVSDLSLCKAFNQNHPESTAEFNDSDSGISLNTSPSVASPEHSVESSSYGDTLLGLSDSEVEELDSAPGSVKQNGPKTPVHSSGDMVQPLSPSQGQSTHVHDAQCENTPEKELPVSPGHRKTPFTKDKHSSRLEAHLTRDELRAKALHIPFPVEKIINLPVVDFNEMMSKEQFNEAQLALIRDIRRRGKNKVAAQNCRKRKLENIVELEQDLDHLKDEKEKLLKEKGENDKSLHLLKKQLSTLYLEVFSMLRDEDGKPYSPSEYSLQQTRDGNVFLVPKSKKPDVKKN

Variants of: B1
Settings: with nf2l2_human NFE2L2, Q16236

| effect of a mutation on the interaction | Variant |
| --- | --- |
| disrupting interaction | Y334A |
| disrupting interaction | S363A |
| decreasing interaction | R380A |
| disrupting interaction | N382A |
| disrupting interaction | R415A |
| disrupting interaction | S508A |
| decreasing interaction | Q530A |
| decreasing interaction | S555A |
| disrupting interaction | S602A |
